Numbering of substitutions follows the chain as printed.
B1: gamma-hemolysin component HlgA (S component leukotoxin) of Staphylococcus aureus (natural protein)
chain: ENKIEDIGQGAEIIKRTQDITSKRLAITQNIQFDFVKDKKYNKDALVVKMQGFISSRTTYSDLKKYPYIKRMIWPFQYNISLKTKDSNVDLINYLPKNKIDSADVSQKLGYNIGGNFQSAPSIGGSGSFNYSKTISYNQKNYVTEVESQNSKGVKWGVKANSFVTPNGQVSAYDQYLFAQDPTGPAARDYFVPDNQLPPLIQSGFNPSFITTLSHERGKGDKSEFEITYGRNMDATYAYVTRHRLAVDRKHDAFKNRNVTVKYEVNWKTHEVKIKSITPK
B2: atypical chemokine receptor 1 (ACKR1), purified, glycosylated wild type (receptor)
chain: MGNCLHRAELSPSTENSSQLDFEDVWNSSYGVNDSFPDGDYGANLEAAAPCHSCNLLDDSALPFFILTSVLGILASSTVLFMLFRPLFRWQLCPGWPVLAQLAVGSALFSIVVPVLAPGLGSTRSSALCSLGYCVWYGSAFAQALLLGCHASLGHRLGAGQVPGLTLGLTVGIWGVAALLTLPVTLASGASGGLCTLIYSTELKALQATHTVACLAIFVLLPLGLFGAKGLKKALGMGPGPWMNILWAWFIFWWPHGVVLGLDFLVRSKLLLLSTCLAQQALDLLLNLAEALAILHCVATPLLLALFCHQATRTLLPSLPLPEGWSSHLDTLGSKS
modifications: N-glycosylated at N16, N27 and N33
B3: gamma-hemolysin component HlgB (F component leukotoxin) of Staphylococcus aureus (natural protein)
chain: NAEGKITPVSVKKVDDKVTLYKTTATADSDKFKISQILTFNFIKDKSYDKDTLVLKATGNINSGFVKPNPNDYDFSKLYWGAKYNVSISSQSNDSVNVVDYAPKNQNEEFQVQNTLGYTFGGDISISNGLSGGLNGNTAFSETINYKQESYRTTLSRNTNYKNVGWGVEAHKIMNNGWGPYGRDSFHPTYGNELFLAGRQSSAYAGQNFIAQHQMPLLSRSNFNPEFLSVLSHRQDGAKKSKITVTYQREMDLYQIRWNGFYWAGANYKNFKTRTFKSTYEIDWENHKVKLLDTKETENNK

Legend:
[1] = biological target: SNAP-tag-fused ACKR1 receptor (human) (UniProt Q16570); assay: FRET or BRET
[2] = biological target: T1, ACKR1 treated with PNGase F (deglycosylated ACKR1) (human, UniProt Q16570 1-336, N-glycans removed by PNGase F); assay: native MS
T1 sequence: B2 chain

[3] = biological target: B3; assay: native MS
[4] = biological target: T2, gamma-hemolysin component HlgA (S component leukotoxin) of Staphylococcus aureus (Staphylococcus aureus), P0A074; assay: native MS; conditions: remark: other sources report otherwise
T2 chain: B1 chain

[5] = biological target: T3, N16,27,33Q-ACKR1 mutant (non-glycosylated) (human, UniProt Q16570 1-336, N^16,27,33Q | N^16,27,33Q | N^16,27,33Q); assay: HDX-MS
T3 sequence: B2 chain with N16Q, N27Q, N33Q

[6] = biological target: the molecule itself; assay: native MS

With “HlgAB, equimolar mixture of HlgA and HlgB (from UniProt P0A074;P0A077) (complex)” the IC50 [1] was 6.2 nM.

B1 was tested, and the “stoichiometry N” value [2] was 1, the binding result [3] was “binds” and the relative quantification in the equimolar mixture (HlgA monomer 100%) [4] was 1.5%. The stoichiometry N [4] was 2 and the binding result [5] was “binds”.

In the case of B2, the “stoichiometry N” value [6] is reported as 2.

For B3, the “fold dimer-to-monomer ratio against HlgA” value [6] was 2 fold, the “stoichiometry N” value [6] was 2 and the binding result [5] was “binds”.
